To fix the notation:
B1: Amer1 (766–823, Δ778–794) (domain or fragment, human, UniProt Q5JTC6 766-823, looked up)
chain: TVSFSQALVEFTSFTQNLPELPPMVTFDIADVERDGEGKCE
notes: human Amer1/WTX residues 766–823 with residues 778–794 deleted; not shown: GST, N-terminal, kept
B2: APC–ARM, human APC (407–775), N-terminally His-tagged (domain or fragment, UniProt P25054 407-775, looked up)
chain: LHLLEQIRAYCETCWEWQEAHEPGMDQDKNPMPAPVEHQICPAVCVLMKLSFDEEHRHAMNELGGLQAIAELLQVDCEMYGLTNDHYSITLRRYAGMALTNLTFGDVANKATLCSMKGCMRALVAQLKSESEDLQQVIASVLRNLSWRADVNSKKTLREVGSVKALMECALEVKKESTLKSVLSALWNLSAHCTENKADICAVDGALAFLVGTLTYRSQTNTLAIIESGGGILRNVSSLIATNEDHRQILRENNCLQTLLQHLKSHSLTIVSNACGTLWNLSARNPKDQEALWDMGAVSMLKNLIHSKHKMIAMGSAAALRNLMANRPAKYKDANIMSPGSSLPSLHVRKQKALEAELDAQHLSETFDN
notes: human APC, ARM domain, residues 407–775; source: E. coli BL21(DE3), purified (Ni2+-NTA, Superdex200)
B3: GST-Amer1 (766–823), core A3 (domain or fragment, human, UniProt Q5JTC6 766-823, looked up)
chain: TVSFSQALVEFTSNGNLFSSMSCSSDSDSSFTQNLPELPPMVTFDIADVERDGEGKCE
notes: human Amer1/WTX residues 766–823; not shown: GST, N-terminal, kept
B4: APC–ARM, human APC (407–751), N-terminally His-tagged (domain or fragment, UniProt P25054 407-751, looked up)
chain: LHLLEQIRAYCETCWEWQEAHEPGMDQDKNPMPAPVEHQICPAVCVLMKLSFDEEHRHAMNELGGLQAIAELLQVDCEMYGLTNDHYSITLRRYAGMALTNLTFGDVANKATLCSMKGCMRALVAQLKSESEDLQQVIASVLRNLSWRADVNSKKTLREVGSVKALMECALEVKKESTLKSVLSALWNLSAHCTENKADICAVDGALAFLVGTLTYRSQTNTLAIIESGGGILRNVSSLIATNEDHRQILRENNCLQTLLQHLKSHSLTIVSNACGTLWNLSARNPKDQEALWDMGAVSMLKNLIHSKHKMIAMGSAAALRNLMANRPAKYKDANIMSPGSSLPS
notes: human APC, armadillo repeat (ARM) domain, residues 407–751; source: E. coli BL21(DE3), purified (Ni2+-NTA, Superdex200)
B5: GST-Amer1 (380–531), full A2 (domain or fragment, human, UniProt Q5JTC6 380-531, looked up)
chain: EEEEEEEEVELEEEEEEVKEEEEDDDLEYLWETAQMYPRPNMNLGYHPTTSPGHHGYMLLDPVRSYPGLAPGELLTPQSDQQESAPNSDEGYYDSTTPGFEDDSGEALGLVRRDCLPRDSYSGDALYEFYEPDDSLENSPPGDDCLYDLHGR
notes: the methods print full A2: 400–531; also called full Amer1-A2; not shown: GST, N-terminal, kept
B6: GST-Amer1 (280–368), full A1 (domain or fragment, human, UniProt Q5JTC6 280-368, looked up)
chain: SLEEPHSPETGEKVVAGEVNPPNGPVGDPLSLLFGDVTSLKSFDSLTGCGDIIAEQDMDSMTDSMASGGQRANRDGTKRSSCLVTYQGG
notes: the methods print full A1: 280–364; also called full Amer1-A1; not shown: GST, N-terminal, kept
B7: GST-Amer1 (325–335), core A1 (domain or fragment, human)
chain: LTGCGDIIAEQ
notes: human Amer1/WTX residues 325–335; The results call the ITC samples peptides; the ITC methods name GST-Amer1 proteins; also called Amer1-A1; not shown: GST, N-terminal, kept
B8: GST-Amer1 (496–508), core A2 (domain or fragment, human)
chain: PRDSYSGDALYEF
notes: human Amer1/WTX residues 496–508; The results call the ITC samples peptides; the ITC methods name GST-Amer1 proteins; also called Amer1-A2; not shown: GST, N-terminal, kept
B9: GST-Amer1 (365–375), A4 (domain or fragment, human)
chain: YQGGGEEMALP
notes: human Amer1/WTX residues 365–375; also called Amer1-A4; not shown: GST, N-terminal, kept
B10: Amer1-A2 peptide (residues 496–508) (peptide)
peptide: H-PRDSYSGDALYEF-OH
notes: human Amer1/WTX residues 496–508; also called hAmer1-A2 (496–508); source: synthetic peptide (Appeptide Company), HPLC purified
B11: Amer1-A4 peptide (residues 365–375) (peptide)
peptide: H-YQGGGEEMALP-OH
notes: human Amer1/WTX residues 365–375; also called hAmer1-A4 (365–375); source: synthetic peptide (Appeptide Company), HPLC purified
B12: Amer1-A1 peptide (residues 325–335) (peptide)
peptide: H-LTGCGDIIAEQ-OH
notes: human Amer1/WTX residues 325–335; also called hAmer1-A1 (325–335); source: synthetic peptide (Appeptide Company), HPLC purified
B13: GST-Amer1 (716–834), A3 (domain or fragment, human, UniProt Q5JTC6 716-834, looked up)
chain: TCLMQLFQSDAMFEPDMQEANFGGSPRRAYPTYSPPEDPEEEEVEKEGNATVSFSQALVEFTSNGNLFSSMSCSSDSDSSFTQNLPELPPMVTFDIADVERDGEGKCEENPEFHNDEDL
notes: human Amer1/WTX residues 716–834; The methods list only A3: 766–823 among the GST constructs; not shown: GST, N-terminal, kept

Conditions in all cases: both partners purified
Test [1] deals with B2. The test is described as follows: ITC; ITC200, 25 °C; 50 mM HEPES pH 7.5, 300 mM NaCl, 1 mM EDTA; typically 200 μM APC–ARM injected into 20 μM GST-Amer1 fragment, or 1 mM GST-Amer1 fragment into 80 μM APC–ARM; single-site model. (In general: In ITC the heat of successive injections is recorded.)
The target in test [2] is B3. The description is as above.
In test [3] the target is B1. The description is as above.
The test “GST-Amer1 (716–834), A3” has as its target B13. The description is as above.
The target of test [4] is B6. The test is described as above.
The target in test [5] is B5. The description is as above.
Test [6] concerns the target B7. The test is described as above.
Test [7] has as its target B8. The test is described as above.
The test “GST-Amer1 (365–375), A4” has as its target B9. The description is as above.
Test [8] addresses B4. The test is described as above.
The target in test [9] is B4. The test is described as follows: crystal structure; APC–ARM mixed with synthetic Amer1 peptide at 1:1.5; hanging drop, 14 °C.

The values below come from publication PMC4860839, “Structures of the APC–ARM domain in complexes with discrete Amer1/WTX fragments reveal that it uses a consensus mode to recognize its binding partners” (Cell Discovery, 2015).

As usually defined, the Kd is the concentration at which binding is half-saturated. A high value points to a looser complex. What is called stoichiometry N is the number of molecules, sites or subunits per partner or assembly.

Molecule B1 displayed a dissociation constant (Kd) in test [1] of 0.22 ± 0.11 µM.

Turning to B2, the dH in [2] is -7.61 ± 0.167 kJ/mol; in test [3], -5.82 ± 0.251 kJ/mol; with GST-Amer1 (716–834), A3 it was -7.61 ± 0.251 kJ/mol. Besides, the “stoichiometry N” value in [2] came to 1 ± 0.02 Amer1/APC ratio; in test [3], 1.02 ± 0.03 Amer1/APC ratio; in the test with GST-Amer1 (716–834), A3, 0.99 ± 0.02 Amer1/APC ratio.

In turn, B3 returned an equilibrium dissociation constant (Kd) in [1] of 0.27 ± 0.07 µM.

In the case of B4, the dH in test [4] is -4.69 ± 2.3 kJ/mol; in test [5], -14.6 ± 0.418 kJ/mol; in [6], -3.77 ± 0.418 kJ/mol; in test [7] it was -21.8 ± 0.837 kJ/mol; with GST-Amer1 (365–375), A4 it was -14.6 ± 0.418 kJ/mol. The “stoichiometry N” value turned out to be 0.97 ± 0.39 Amer1/APC ratio in test [4]; 0.92 ± 0.02 Amer1/APC ratio in test [5]; 0.9 ± 0.08 Amer1/APC ratio in test [6]; 1.08 ± 0.02 Amer1/APC ratio in test [7]; 0.95 ± 0.02 Amer1/APC ratio with GST-Amer1 (365–375), A4.

Take B5: the dissociation constant Kd in test [8] is 0.5 ± 0.1 µM.

On to B6, for which, in test [8], binding was put at a Kd of 8 ± 4.1 µM.

In [8], B7 registered a Kd of 14.4 ± 4.3 µM.

In test [8], B8 displayed a Kd of 1.1 ± 0.2 µM.

In [8], B9 came in with a Kd of 2 ± 0.3 µM.

Take B10: the binding result in test [9] is on record as “binds”.

Take B11: the binding result in test [9] is reported as “binds”.

As for B12, in [9], the binding result is listed as “binds”.

As to B13, in [1], the affinity, expressed as Kd, was 0.13 ± 0.06 µM.
